The text below walks through data of paper PMC11417369, “DNA sequence and chromatin differentiate sequence-specific transcription factor binding in the human malaria parasite Plasmodium falciparum”.

B1: GTGCAC_negctrl_site277 (dsDNA)
DNA 1: TTTTTTAAATATTATTTTTATGAGTAAATATATTAT
DNA 2: ATAATATATTTACTCATAAAAATAATATTTAAAAAA
B2: GTGCAC_negctrl_site469 (dsDNA)
DNA 1: AACAAAGGATTTATATATACATACATACATACATAA
DNA 2: TTATGTATGTATGTATGTATATATAAATCCTTTGTT
B3: GTGCAC_negctrl_site442 (dsDNA)
DNA 1: ATAGTACAACAGGTTCTTGACAAACAATATGAATGT
DNA 2: ACATTCATATTGTTTGTCAAGAACCTGTTGTACTAT
B4: GTGCAC_negctrl_site688 (dsDNA)
DNA 1: ATAATTATTTAATATATATATATTATTTCGAATGTT
DNA 2: AACATTCGAAATAATATATATATATTAAATAATTAT
B5: GTGCAC_negctrl_site611 (dsDNA)
DNA 1: ATCGAAATTTTAGAATATATATGATGTTACTTAAGT
DNA 2: ACTTAAGTAACATCATATATATTCTAAAATTTCGAT
B6: GTGCAC_negctrl_site327 (dsDNA)
DNA 1: GCACACATATAATTAAACATATATTTGTATTATTTT
DNA 2: AAAATAATACAAATATATGTTTAATTATATGTGTGC
B7: GTGCAC_negctrl_site517 (dsDNA)
DNA 1: TTTTGAAGTAACAAATAAATAAATAAATATATAAAA
DNA 2: TTTTATATATTTATTTATTTATTTGTTACTTCAAAA
B8: GTGCAC_negctrl_site454 (dsDNA)
DNA 1: AAAAAAAAAGTATATATATATTTAAGGAATTCTCTC
DNA 2: GAGAGAATTCCTTAAATATATATATACTTTTTTTTT
B9: GTGCAC_negctrl_site247 (dsDNA)
DNA 1: TGTTTATAAATATAAAAAAATATATATATATATTAT
DNA 2: ATAATATATATATATATTTTTTTATATTTATAAACA
B10: GTGCAC_negctrl_site127 (dsDNA)
DNA 1: ATATATACATATACTATATCTTTTATTTTTATTATT
DNA 2: AATAATAAAAATAAAAGATATAGTATATGTATATAT
B11: GTGCAC_negctrl_site606 (dsDNA)
DNA 1: TTTAATTTTACATGAGAAACATATTACAATAAAATA
DNA 2: TATTTTATTGTAATATGTTTCTCATGTAAAATTAAA
B12: GTGCAC_negctrl_site497 (dsDNA)
DNA 1: TATATAATATATATTTTATATTTGTAATAATTTTTT
DNA 2: AAAAAATTATTACAAATATAAAATATATATTATATA
B13: GTGCAC_negctrl_site41 (dsDNA)
DNA 1: TCTTGATACAAACATTTAAATAAATAAATAAAAAAA
DNA 2: TTTTTTTATTTATTTATTTAAATGTTTGTATCAAGA
B14: GTGCAC_negctrl_site22 (dsDNA)
DNA 1: AATATATTGTTTCCTGATATTAAATTCAATTTAATG
DNA 2: CATTAAATTGAATTTAATATCAGGAAACAATATATT
B15: GTGCAC_negctrl_site76 (dsDNA)
DNA 1: B14 DNA 1 with T8G, G9C, C14G, G16T
DNA 2: B14 DNA 2 with C21A, G23C, C28G, A29C
B16: GTGCAC_negctrl_site432 (dsDNA)
DNA 1: AAAAAAATAATATAAATAATGAAAAGATATAAATAA
DNA 2: TTATTTATATCTTTTCATTATTTATATTATTTTTTT
B17: GTGCAC_negctrl_site225 (dsDNA)
DNA 1: AAATGAATAAAATTTATTTATAAAAGAAAAATCACA
DNA 2: TGTGATTTTTCTTTTATAAATAAATTTTATTCATTT
B18: GTGCAC_negctrl_site197 (dsDNA)
DNA 1: TTTTTAAAAAAGATAAGCGAAAGAATTAATTTTTAA
DNA 2: TTAAAAATTAATTCTTTCGCTTATCTTTTTTAAAAA
B19: GTGCAC_negctrl_site534 (dsDNA)
DNA 1: TTTTTTATCTAATATTTTATAATTTTCATAAATTTG
DNA 2: CAAATTTATGAAAATTATAAAATATTAGATAAAAAA
B20: GTGCAC_negctrl_site8 (dsDNA)
DNA 1: TTTTGTAGCAAAAAATAGGAAAAAAAAAAATTAAAT
DNA 2: ATTTAATTTTTTTTTTTCCTATTTTTTGCTACAAAA
B21: GTGCAC_negctrl_site271 (dsDNA)
DNA 1: TTGTTAATAAATAAATAAATAAATATATTTATATAT
DNA 2: ATATATAAATATATTTATTTATTTATTTATTAACAA
B22: GTGCAC_negctrl_site721 (dsDNA)
DNA 1: GTTTTAAAATTAAATATTATGGCATAATTCAAGAAA
DNA 2: TTTCTTGAATTATGCCATAATATTTAATTTTAAAAC
B23: GTGCAC_negctrl_site409 (dsDNA)
DNA 1: ATTGAGGCTGGTTATATAATAATTTTATTATTTTAG
DNA 2: CTAAAATAATAAAATTATTATATAACCAGCCTCAAT
B24: GTGCAC_negctrl_site726 (dsDNA)
DNA 1: GAAAACATTAAAAGTTAGATCATAAGAAAAGAATAT
DNA 2: ATATTCTTTTCTTATGATCTAACTTTTAATGTTTTC
B25: GTGCAC_negctrl_site174 (dsDNA)
DNA 1: AAGAAAAAAAAAAAAAAAAAAAAAAAAAAGGAAAAA
DNA 2: TTTTTCCTTTTTTTTTTTTTTTTTTTTTTTTTTCTT
B26: GTGCAC_negctrl_site418 (dsDNA)
DNA 1: TATTGACAAAAAAAAAAAAGGTAAAAAAGAAAGAAA
DNA 2: TTTCTTTCTTTTTTACCTTTTTTTTTTTTGTCAATA
B27: GTGCAC_negctrl_site334 (dsDNA)
DNA 1: TTTTTAATTAACTTTTTATAAATAAATAAAAATATA
DNA 2: TATATTTTTATTTATTTATAAAAAGTTAATTAAAAA
B28: GTGCAC_negctrl_site567 (dsDNA)
DNA 1: AATATAAACATAGATAGATAAATAAATAAATAAACA
DNA 2: TGTTTATTTATTTATTTATCTATCTATGTTTATATT
B29: GTGCAC_negctrl_site529 (dsDNA)
DNA 1: TTATTATATATGTTCACATAAATACATAAATATATA
DNA 2: TATATATTTATGTATTTATGTGAACATATATAATAA
B30: GTGCAC_negctrl_site372 (dsDNA)
DNA 1: AAAAAAATCACATAAAATACTTTATTTTATATTATA
DNA 2: TATAATATAAAATAAAGTATTTTATGTGATTTTTTT
B31: GTGCAC_negctrl_site494 (dsDNA)
DNA 1: AAGTTTAAGAAATAATTCATATTTACTTCCATCCTC
DNA 2: GAGGATGGAAGTAAATATGAATTATTTCTTAAACTT
B32: GTGCAC_negctrl_site30 (dsDNA)
DNA 1: TCTTAAAAGGGGAATGGAATGGAGAAAATGAAATAA
DNA 2: TTATTTCATTTTCTCCATTCCATTCCCCTTTTAAGA
B33: GTGCAC_negctrl_site492 (dsDNA)
DNA 1: AAAACCTAAAAGTCTTAAATTTTAAATATACCTACA
DNA 2: TGTAGGTATATTTAAAATTTAAGACTTTTAGGTTTT
B34: GTGCAC_negctrl_site311 (dsDNA)
DNA 1: ATAAAATACCCTGATCTATTACATATTATATTCTGC
DNA 2: GCAGAATATAATATGTAATAGATCAGGGTATTTTAT
B35: GTGCAC_negctrl_site374 (dsDNA)
DNA 1: TTTCCGGTAATATGGAGATATATGTGGGTTTTTTTT
DNA 2: AAAAAAAACCCACATATATCTCCATATTACCGGAAA
B36: GTGCAC_negctrl_site86 (dsDNA)
DNA 1: ATTTTTTTATACAATTTTATATATTAAATATTATAA
DNA 2: TTATAATATTTAATATATAAAATTGTATAAAAAAAT
B37: GTGCAC_negctrl_site106 (dsDNA)
DNA 1: AAATAAAATAATTATAATACTAAAAATAATACATAA
DNA 2: TTATGTATTATTTTTAGTATTATAATTATTTTATTT
B38: GTGCAC_negctrl_site172 (dsDNA)
DNA 1: TATTTTTTAAGTGAACATTTGTTATTATATTCTTAT
DNA 2: ATAAGAATATAATAACAAATGTTCACTTAAAAAATA
B39: GTGCAC_negctrl_site125 (dsDNA)
DNA 1: AAAAATTATAAAAAACAAATATTAAATAATTATTAA
DNA 2: TTAATAATTATTTAATATTTGTTTTTTATAATTTTT
B40: GTGCAC_negctrl_site394 (dsDNA)
DNA 1: AAAAAAAATTAAATAAATAAATATACACATATATAT
DNA 2: ATATATATGTGTATATTTATTTATTTAATTTTTTTT
B41: GTGCAC_negctrl_site216 (dsDNA)
DNA 1: GGTAGATTATTATTAACGAAAAATGTTTTTAACATA
DNA 2: TATGTTAAAAACATTTTTCGTTAATAATAATCTACC
B42: GTGCAC_negctrl_site68 (dsDNA)
DNA 1: GCAAAATAACAATGTTACACTTATAAAATTGAGGCA
DNA 2: TGCCTCAATTTTATAAGTGTAACATTGTTATTTTGC

Positions count from the first letter of the chain named.

The data set addresses AP2-I D3 (Plasmodium falciparum, UniProt Q8IJW6 910-1027). Kind of data set: gcPBM; about 25 ug protein; PBS, 1% milk, 0.2 mg/ml BSA, salmon testes DNA, 0.03% Triton X-100. The conditions noted are these: tags: N-terminal GST (pGEX-4T-1), kept; label: surface-attached array probe.
On to B1, for which the binding signal was 7.22 ln median PBM intensity, better of two orientations.

On to B2, for which the binding signal is 7.14 ln median PBM intensity, better of two orientations.

B3: the binding signal is 7.13 ln median PBM intensity, better of two orientations.

Take B4: the binding signal is 7.24 ln median PBM intensity, better of two orientations. To B5 belongs 7.04 ln median PBM intensity, better of two orientations. To B6 belongs 7.22 ln median PBM intensity, better of two orientations; to B7, 7.16 ln median PBM intensity, better of two orientations.

Turning to B8, the binding signal was 7.18 ln median PBM intensity, better of two orientations. For B9, the binding signal was 7.14 ln median PBM intensity, better of two orientations.

Turning to B10, the binding signal is 7.2 ln median PBM intensity, better of two orientations.

For the molecule B11, the binding signal was 7.18 ln median PBM intensity, better of two orientations. To B12 belongs 7.15 ln median PBM intensity, better of two orientations; to B13, 7.16 ln median PBM intensity, better of two orientations; to B14, 7.11 ln median PBM intensity, better of two orientations.

B15: the binding signal is 7.14 ln median PBM intensity, better of two orientations.

Turning to B16, the binding signal was 7.13 ln median PBM intensity, better of two orientations. B17: the binding signal was 7.04 ln median PBM intensity, better of two orientations.

As to B18, the binding signal is 7.16 ln median PBM intensity, better of two orientations. Next, B19: 7.06 ln median PBM intensity, better of two orientations; B20: 7.26 ln median PBM intensity, better of two orientations; B21: 7.14 ln median PBM intensity, better of two orientations. On to B22, for which the binding signal is 7.22 ln median PBM intensity, better of two orientations. For B23, the binding signal is 7.11 ln median PBM intensity, better of two orientations.

With B24, the binding signal was 7.04 ln median PBM intensity, better of two orientations.

As for B25, the binding signal is 7.21 ln median PBM intensity, better of two orientations. As for B26, the binding signal is 7.05 ln median PBM intensity, better of two orientations. Next, B27: 7.2 ln median PBM intensity, better of two orientations; B28: 7.22 ln median PBM intensity, better of two orientations; B29: 7.24 ln median PBM intensity, better of two orientations. As for B30, the binding signal was 7.11 ln median PBM intensity, better of two orientations.

In the case of B31, the binding signal is 7.03 ln median PBM intensity, better of two orientations. With B32, the binding signal was 7.11 ln median PBM intensity, better of two orientations.

Turning to B33, the binding signal is 7.08 ln median PBM intensity, better of two orientations.

For the molecule B34, the binding signal is 7.03 ln median PBM intensity, better of two orientations. As for B35, the binding signal was 7.18 ln median PBM intensity, better of two orientations.

As for B36, the binding signal is 7.23 ln median PBM intensity, better of two orientations. Next, B37: 7.24 ln median PBM intensity, better of two orientations. In the case of B38, the binding signal is 7.06 ln median PBM intensity, better of two orientations. To B39 belongs 7.08 ln median PBM intensity, better of two orientations; to B40, 7.11 ln median PBM intensity, better of two orientations; to B41, 7.18 ln median PBM intensity, better of two orientations. On to B42, for which the binding signal is 7.14 ln median PBM intensity, better of two orientations.
